Measured values as given in US20050059087A1 (Amgen, published 2005).
No end group written: not given here.

B1: SC-EGFRvIII-XG1-131 (antibody, V domains shown)
VH: QVQLVESGGGVVQSGRSLRLSCAASGFTFRNYGMHWVRQAPGKGLEWVAVIWYDGSDKYYADSVRGRFTISRDNSKNTLYLQMNSLRAEDTAVYYCARDGYDILTGNPRDFDYWGQGTLVTVSS
VL: DTVMTQTPLSSHVTLGQPASISCRSSQSLVHSDGNTYLSWLQQRPGQPPRLLIYRISRRFSGVPDRFSGSGAGTDFTLEISRVEAEDVGVYYCMQSTHVPWTFGQGTKVEIK
notes: also called SC131; sc131
B2: mAb 131 variant, light chain V99F (antibody, V domains shown)
VH: QVQLVESGGGVVQSGRSLRLSCAASGFTFRNYGMHWVRQAPGKGLEWVAVIWYDGSDKYYADSVRGRFTISRDNSKNTLYLQMNSLRAEDTAVYYCARDGYDILTGNPRDFDYWGQGTLVTVSS
VL: DTVMTQTPLSSHVTLGQPASISCRSSQSLVHSDGNTYLSWLQQRPGQPPRLLIYRISRRFSGVPDRFSGSGAGTDFTLEISRVEAEDVGVYYCMQSTHFPWTFGQGTKVEIK
notes: also called V99 changed to F
B3: SC-EGFRvIII-XG1-139 (antibody, V domains shown)
VH: EVQVLESGGGLVQPGGSLRLSCAASGFTFSSYAMSWVRQAPGKGLEWVSAISGSGGSTNYADSVKGRFTISRDNSKNTLYLQMNSLRAEDTAVYYCAGSSGWSEYWGQGTLVTVSS
VL: DIQMTQSPSSLSASVGDRVTITCRASQGIRNNLAWYQQKPGKAPKRLIYAASNLQSGVPSRFTGSGSGTEFTLIVSSLQPEDFATYYCLQHHSYPLTSGGGTKVEIK
notes: also called SC139; sc139
B4: AB-EGFRvIII-XG1K-13.1.2 (antibody, V domains shown)
VH: QVQLVESGGGVVQPGRSLRLSCAASGFTFSSYGMHWVRQAPGKGLEWVAVIWYDGSNKYYVDSVKGRFTISRDNSKNTLYLQMNSLRAEDTAVYYCARDGWQQLAPFDYWGQGTLVTVSS
VL: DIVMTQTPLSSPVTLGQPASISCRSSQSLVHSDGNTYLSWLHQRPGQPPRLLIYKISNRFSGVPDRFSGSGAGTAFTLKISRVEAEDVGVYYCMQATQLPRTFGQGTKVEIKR
B5: 13.1.2 variant L99T-5.3 (antibody, V domains shown)
VH: QVQLVESGGGVVQPGRSLRLSCAASGFTFSSYGMHWVRQAPGKGLEWVAVIWYDGSNKYYVDSVKGRFTISRDNSKNTLYLQMNSLRAEDTAVYYCARDGWQQLAPFDYWGQGTLVTVSS
VL: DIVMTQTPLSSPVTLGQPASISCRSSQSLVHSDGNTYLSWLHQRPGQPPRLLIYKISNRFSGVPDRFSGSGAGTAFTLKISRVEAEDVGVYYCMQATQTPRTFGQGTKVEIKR
notes: also called Leu99Thr; 99Thr
B6: 13.1.2 variant L99N-4.1 (antibody, V domains shown)
VH: QVQLVESGGGVVQPGRSLRLSCAASGFTFSSYGMHWVRQAPGKGLEWVAVIWYDGSNKYYVDSVKGRFTISRDNSKNTLYLQMNSLRAEDTAVYYCARDGWQQLAPFDYWGQGTLVTVSS
VL: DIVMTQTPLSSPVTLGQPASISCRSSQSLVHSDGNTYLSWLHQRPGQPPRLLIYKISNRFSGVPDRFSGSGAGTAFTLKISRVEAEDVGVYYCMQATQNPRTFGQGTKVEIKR
notes: also called Leu99Asn; 99Asn

What was measured:
[1] = target: T1, Pep-3, NH2-LEEKKGNYVVTDHG-OH (human); test: KinExA, pep3
T1 construct: Free peptide used in Biacore and KinExA (MW 1590 Da)
T1 peptide: H-LEEKKGNYVVTDHG-OH
Description: All KinExA experiments were conducted at room temperature (˜23° C.). For all equilibrium experiments, antigen was serially diluted into solutions having a constant mAb binding site concentration. For the first 10 titration points the dilutions were 2-fold and the 11th and 12th serial dilutions were 10-fold. The sample flow rate for all experiments was 0.25 mL/min and the labeling antibody flow rate was 0.5 mL/min. […] A sample volume of 250 μL was analyzed for the antibody-controlled experiment. Two or three replicates of each sample were measured for all equilibrium experiments. The equilibrium titration data were fit in a dual curve analysis to a 1:1 binding model using KinExA software (Version 2.4, Sapidyne Instruments).

[2] = target: T2, EGFRvIII peptide-OVA (PEP3 14-mer conjugated to ovalbumin) (human, also: conjugated to OVA, chemistry not given here); test: XenoMax screening
T2 construct: also called VIII-pep-OVA; muEGFr
T2 peptide: LEEKKGNYVVTDHC

[3] = target: EGFrVIII antigen (ELISA antigen of Examples 15, 17 and 21; form not stated) (human, UniProt P00533 298-645, limits assumed); test: binding of variant antibody to EGFRvIII antigen
[4] = target: T3, EGFRvIII, full length, expressed by transfected cells (NR6 M, H1477, 300.19/EGFRvIII) (human, UniProt P00533 298-1210); test: cell-based or functional assay
[5] = target: T4, EGFRvIII-rabbit Fc fusion protein (human; rabbit, UniProt P00533 298-645); test: ELISA, minilipofection supernatant titrated 1:2 on EGFRvIII-Rab Ig Fc fusion protein (1.5 ug/ml)
T4 construct: made in 293F cells; also called EGFRvIII-RbFc; EGFRvIII-Rab Ig Fc fusion protein; not shown: rabbit IgG Hinge-CH2-CH3 (721 bp fragment)
Description: The secretion ELISA tests were performed as follows. […] The plates were washed five times with dH₂O. Recombinant antibodies were titrated 1:2 for 7 wells from the undiluted minilipofection supernatant. The plates were washed five times with dH₂O. A goat anti-human IgG Fc-specific HRP-conjugated antibody was added at a final concentration of 1 μg/mL for 1 hour at RT for the secretion plates and binding plates detected with 1 μg/ml Rb anti Hu Fc for 1 hour at room temperature. The plates were washed five times with dH₂O. The plates were developed with the addition of TMB for 30 minutes and the ELISA was stopped by the addition of 1 M phosphoric acid. Each ELISA plate was analyzed to determine the optical density of each well at 450 nm.

[6] = target: T5, wild type EGFR expressed by cells (NR6 Wt, A431, A549, H80, SF-539, A498, SKRC-52) (human, UniProt P00533 25-1210); test: FACS, 10 ug/ml antibody, H80, A431 and A549 cells
T5 construct: Also used here for Western blots of cell lysates; also called wtEGFR; Wt receptor

[7] = target: T3, EGFRvIII, full length, expressed by …; test: FACS on NR6 M cells, antibody at 0.25 µg/ml with SS Alexa anti-human IgG Fab, 37° C. for 1 hr, no glutathione (total cell-associated fluorescence)
Description: XenoMax derived IgG1 recombinant antibodies were expressed, purified and quantitated as described previously. Antibodies were further assayed for their ability to internalize the EGFRvIII receptor in NR6 M cells. […] The cells were washed with cold 10% FCS in PBS and secondary antibody (SS Alexa antihuman IgG Fab) at 3 μg/ml Fab was added and incubated for 7 mins on ice. The cells were washed with cold 10% FCS in PBS once and then resuspended in cold media. Next, two sets of the triplicate were incubated at 37° C. and the remaining set was incubated at 4° C. for 1 hr. After that the cells incubated at 4° C. and one set of the cells incubated at 37° C. were treated with glutathione (as previously mentioned) for 1 hr on ice. Then the cells were washed and resuspended in 100 μl of cold 1% FCS in PBS and analyzed by FACS. The % internalization was calculated from the geometric mean obtained from the FACS analysis [(mean at 37° C. with glutathione—mean at 4° C. with glutathione)/(mean at 37° C. without glutathione—mean at 4 C with glutathione)].

[8] = target: T1, Pep-3, NH2-LEEKKGNYVVTDHG-OH; test: Biacore 2000 SPR, mAb immobilised, pep-3 analyte, 23 C
Description: Standard EDC/NHS and carbohydrate coupling was used to covalently immobilize mAbs to a CM5 sensor chip. To minimize mass transport and crowding mAbs were immobilized at levels that gave a maximum antigen binding response (Rₘₐₓ) of no more than 50-100 RU. A reference flow cell on each chip was activated and blocked with no mAb immobilization to serve as a control.
All Biacore kinetic experiments were conducted at 23° C. […] Antigen samples were randomly injected over the biosensor surface in triplicate at 100 μL/min. Several buffer blanks were injected intermittently over the course of an experiment for double referencing. Each pep-3 concentration and blank were injected for 90 seconds. Dissociation was followed for 13 to 180 minutes.
All Biacore sensorgrams were processed using Scrubber software (Version 1.1f, BioLogic Software, Australia). Sensorgrams were first zeroed on the y-axis and then x-aligned at the beginning of the injection. Bulk refractive index changes were removed by subtracting the reference flow cell responses. The average response of all blank injections was subtracted from all analyte and blank sensorgrams to remove systematic artifacts between the experimental and reference flow cells. CLAMP biosensor data analysis software (Version 3.40, BioLogic Software, Australia) was used to determine kₐ and kd from the processed data sets. Data from all flow cells were globally fit to a 1:1 bimolecular binding model that included a mass transport term. […] The KD was calculated from the quotient kd/kₐ.

[9] = target: T1, Pep-3, NH2-LEEKKGNYVVTDHG-OH; test: Biacore 2000 SPR, mAb immobilised, pep-3 analyte; 95% confidence interval in parentheses
Description: (§1) Two CM5 sensor chips were used in total to immobilize both mAbs. […] Biacore 2000 optical biosensors were used for all studies.
(§2) Next, pep-3 was flowed across the mAb immobilized biosensor surfaces. […] Blank injections were run every sixth sample throughout the injection series for double referencing purposes.

[10] = target: T1, Pep-3, NH2-LEEKKGNYVVTDHG-OH; test: KinExA, pep3; KinExA (solution equilibrium), pep3; not Biacore
[11] = target: T5, wild type EGFR expressed by cells (NR6 …); test: FACS on H80 glioblastoma cells (wild type EGFR only), 30 min on ice, PE goat anti-human IgG; filled histogram = irrelevant IgG
Description: The specificity of the purified antibodies was ascertained by performing FACS analysis on a panel of cell lines. H80, a human glioblastoma line, and H1477 (H80-EGFRvIII) that expresses high levels of EGFRvIII, A431, a human epidemoid carcinoma line, and A549, a human lung carcinoma cell line were used as the cell lines. All cell lines were from Dr. Bigner except A431 and A549, which were from ATCC (Rockville, Md., U.S.A.). Cells were incubated on ice with 10 μg/ml of the respective antibody for 30 min., washed in FACS buffer and subsequently incubated with PE-conjugated goat anti-human IgG from Jackson ImmunoResearch (West Grove, Pa., U.S.A.).

[12] = target: T1, Pep-3, NH2-LEEKKGNYVVTDHG-OH; test: Biacore SPR, mAb immobilised, Pep-3 analyte (single experiment of Example 25)
[13] = target: T1, Pep-3, NH2-LEEKKGNYVVTDHG-OH; test: Biacore 2000 SPR, mAb immobilised, pep-3 analyte; 95% confidence interval in parentheses
Description: as §1, §2

[14] = target: T1, Pep-3, NH2-LEEKKGNYVVTDHG-OH; test: Biacore 2000 SPR, mAb immobilised, pep-3 analyte (range between runs)
Description: as §1, §2

[15] = target: T1, Pep-3, NH2-LEEKKGNYVVTDHG-OH; test: Biacore 2000 SPR, steady-state (equilibrium) binding model, pep-3 analyte
Description: The first step in these examples involved the immobilization of 5,600 resonance units (RU) to 8,000 RU of each mAb tested to one flow cell (Fc) of a CM5 sensor chip using standard EDC/NHS coupling chemistry. […] Three CM5 sensor chips were used in total to immobilize all mutant mAbs with a unique mAb immobilized to each flow cell. […] Biacore 2000 optical biosensors were used for all studies.

Binder	binding result [2]	% internalization [4] [%]	FACS Geometric mean, With glutathione 4° C. [4] [geometric mean]	FACS Geometric mean, With glutathione 37° C. [4] [geometric mean]	FACS Geometric mean (without glutathione, 37° C.) [7] [geometric mean]	Kd [13] [nM]	koff [13] [s⁻¹]	kon [13] [M⁻¹ s⁻¹]	further results
B1	binds	–	–	–	–	–	–	–	Kd [1]: 0.05 pM
B2	–	–	–	–	–	–	–	–	binding result [3]: no binding
B3	binds	80.8	4.88	19.2	22.6	–	–	–	Titer, antigen binding [5]: > 64 reciprocal dilution; staining relative to ABX-EGF (E7.6.3) [6]: 10%; Kd [8]: 290 nM; koff [8]: 0.00298 s⁻¹; kon [8]: 10300 M⁻¹ s⁻¹
B4	–	82.5	5.38	19.2	22.1	75	0.016	210000	Kd [9]: 75 nM; koff [9]: 0.016 s⁻¹; kon [9]: 210000 M⁻¹ s⁻¹; Kd [10]: 0.025 nM; binding result [11]: no binding (tested: 10 µg/ml); Kd [12]: 67 nM
B5	–	–	–	–	–	60	0.013	216000	Kd [14]: 54 to 70 nM
B6	–	–	–	–	–	–	–	–	Kd [15]: 1400 nM
